Assays:
[1] = target: DENV4 strain 1-0093 envelope (E) protein on virions (Dengue virus 4 (strain 1-0093)); test: ELISA
[2] = target: DENV3 strain H87 envelope (E) protein on virions (Dengue virus 3 (strain H87)); test: ELISA
[3] = target: DENV2 strain 16681 envelope (E) protein on virions (Dengue virus 2 (strain 16681)); test: ELISA
[4] = target: DENV4_Burma/63632/1976 sE protein (aa 1-395) (Dengue virus 4 (strain Burma/63632/1976)); test: crystal structure
[5] = target: DENV4 A259C (sE)2, disulfide engineered mutant dimer; test: BLI (steady state binding)
[6] = target: DENV2 A259C (sE)2, disulfide engineered mutant dimer; test: BLI (steady state binding)
[7] = target: ZIKV-H/PF/2013 sE protein (aa 1-404); test: BLI (steady state binding)
[8] = target: DENV3 A257C (sE)2, disulfide engineered mutant dimer; test: BLI (steady state binding)
[9] = target: K^L66A C10 mAb mutant (IgG1) (human); test: BLI
[10] = target: DENV1-FGA/89 sE protein (aa 1-395) (Dengue virus 1 (strain FGA/89)); test: crystal structure; unbound sE
[11] = target: DENV1-FGA/89 sE protein (aa 1-395) (Dengue virus 1 (strain FGA/89)); test: crystal structure
[12] = target: ZIKV-H/PF/2013 sE protein (aa 1-404) (Zika virus (strain H/PF/2013)); test: SEC-MALS; Superdex 200 10/300 GL; Tris 50 mM pH 8.0, NaCl 500 mM; about 150 ug protein; proteins alone and in complex
[13] = target: ZIKV-H/PF/2013 sE protein (aa 1-404) (Zika virus (strain H/PF/2013)); test: crystal structure
[14] = target: DENV1 strain Hawaii envelope (E) protein on virions (Dengue virus 1 (strain Hawaii)); test: ELISA; apparent
[15] = target: DENV3-paH881 sE protein (aa 1-393) (Dengue virus 3 (strain paH881)); test: crystal structure; unbound sE
[16] = target: DENV3-paH881 sE protein (aa 1-393) (Dengue virus 3 (strain paH881)); test: crystal structure

“C10 monovalent antigen binding fragment (Fab)” showed a fold difference in EC50 for virion binding, bivalent versus monovalent [1] of 10 fold, a fold difference in EC50 for virion binding, bivalent versus monovalent [2] of 2 logs and a fold difference in EC50 for virion binding, bivalent versus monovalent [3] of 10 fold.

Substance “DENV4_Burma/63632/1976 sE protein (aa 1-395) (domain or fragment)” has a stoichiometry N [4] of 2.

Work on “C10 intact bivalent IgG1 (human monoclonal antibody EDE1 C10) L:K66A” yielded a Kd [5] of 1370 nM, a Kd [6] of 259 nM and a Kd [7] of 40.3 nM. For the same substance, the Kd [8] was 223 nM.

“DENV4 A259C (sE)2, disulfide engineered mutant dimer (domain or fragment)” showed a drop in affinity against wild-type C10 [9] of over 1 log.

In the case of “DENV1-FGA/89 sE protein (aa 1-395) (domain or fragment)”, the stoichiometry N [10] is reported as 2 and the stoichiometry N [11] is reported as 2.

Substance “ZIKV-H/PF/2013 sE protein (aa 1-404) (domain or fragment)” has a stoichiometry N [12] of 2 and a stoichiometry N [13] of 2.

With “DENV3 A257C (sE)2, disulfide engineered mutant dimer (domain or fragment)” the drop in affinity against wild-type C10 [9] was over 1 log.

Substance C10 bivalent F(ab')2 has a Kd [14] of 3.84 nM.

In the case of “DENV3-paH881 sE protein (aa 1-393) (domain or fragment)”, the stoichiometry N [15] is reported as 2 and the stoichiometry N [16] is reported as 2.

“DENV2 A259C (sE)2, disulfide engineered mutant dimer (domain or fragment)” gave a drop in affinity against wild-type C10 [9] of over 1 log.

From article PMC8724787
